Results reported in the supplement of paper PMC10201428.
± gives the standard deviation of the averaged measurements.

How the values were obtained:
[1] = test system: VchCAST RNA-guided transposition machinery (E. coli BL21(DE3) host, lacZ target); test: relative integration efficiency (T-LR orientation) vs wild-type transposon end (log2 (normalized fold change)); transposon end mutated: right end (5 bp flank + 75 bp right end); higher = more efficient transposition
In short: (§1)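 Each barcoded pool, 1549 left-end or 1849 right-end transposon variants in a pUC57 mini-transposon donor, went into E. coli BL21(DE3) with a T7-driven effector plasmid (CRISPR array, tniQ-cas8-cas7-cas6, tnsA-tnsB-tnsC). Plates contained 0.1 mM IPTG and were held at 37°C for 18 h. Input plasmids and genomic integration junctions were PCR-amplified and read by Illumina sequencing, with two biological output replicates and four reference barcodes. Relative integration efficiency is the fold change of output over input barcode abundance, normalised to the reference barcodes and log-transformed.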

[2] = test system: VchCAST RNA-guided transposition machinery (E. coli BL21(DE3) host, lacZ target); test: relative integration efficiency (T-RL orientation) vs wild-type transposon end (log2 (normalized fold change)); transposon end mutated: right end (5 bp flank + 75 bp right end); higher = more efficient transposition
In short: as §1

Row | Sequence | relative integration efficiency (log2) [1] | relative integration efficiency (log2) [2]
1 | ACATTTGTTGATACAACCATAAAATGATAATTACACCCATAAATTGATAATTCGACCACCCATAAATTGATATTGCCTCTGATCATAGTCAGACCAACATTGCTACGACCCGTATTCGCACCGACAC | 0.317 ± 0.33 | -0.541 ± 0.14
2 | ACATTTGTTGATACAACCATAAAATGATAATTACACCCATAAATTGATAATTATCACACCCATAAATTGATATTTAAGCTGATCATAGTCAGACCAACATTGCTACGACCCGTATTCGCACCGACAC | -0.0384 ± 0.075 | -0.000531 ± 0.0027
3 | ACATTTCTTGATACAACCATAAAATGATAATTACACCCATAAATGGATCATTATCACACCCAATTTAACTATAACGCTCTGATCATAGTCAGACCAACATTGCTACGACCCGTATTCGCACCGACAC | 0.00332 ± 0.054 | -2.34 ± 0.22
4 | ACATTTGTTGATACAACCATAAACGGATAATTACACCCATAAATTGATAATTATCACACCCATAAATTGATATTGCCTCTGATCATAGTCAGACCAACATTGCTACGACCCGTATTCGCACCGACAC | -0.722 ± 0.72 | -0.642 ± 0.01
5 | ACATTTGTTGATACAACCATAAAATGATAATTACACCCATAAATTGATAATTATCACACCCATAAATTGATATTGCCTCTCAGACCACATAGCTGCCATGTCCTGATCGGACGGACCGCACCGACAC | 0.624 ± 0.19 | 0.787 ± 0.22
6 | ACATTTGTTGATACAACCATAAAATGATAATTCACCCCTAAATTGATAATTATCACACCCACATTTAACTATAACGCTCTGATCATAGTCAGACCAACATTGCTACGACCCGTATTCGCACCGACAC | -0.17 ± 0.1 | -3.72 ± 0.048
7 | ACATTTGTTGATACAACCATAAAATGATAATTACACCCATAAATTGATAATTATCACACCCATAAATTGATATTGCCTCTGATAACTTCGTATAGTATACCTTATACGAAGTTATTCGCACCGACAC | 1.034 ± 0.0024 | -0.958 ± 0.26
8 | ACATTTGTTGATACAACCATAAAATGATAATGCCACCCATAAATTGATAATTATCACACCCATAAATTGATATTGCCTCTGATCATAGTCAGACCAACATTGCTACGACCCGTATTCGCACCGACAC | -0.173 ± 0.33 | -0.625 ± 0.1
9 | ACATTTGTTCATACAACCATAAAATGATAATTACACCCATAAATTGATCATTATCACACCCAATTTAACTATAACGCTCTGATCATAGTCAGACCAACATTGCTACGACCCGTATTCGCACCGACAC | 0.604 ± 0.17 | -1.45 ± 0.36
10 | ACATTTGTTGATACAACCATAAAGTGATATTTACACCCATAAATTGATATTGCTCACACCCATAAATTGATAATTACTCTGATCATAGTCAGACCAACATTGCTACGACCCGTATTCGCACCGACAC | 0.595 ± 0.26 | -0.232 ± 0.12
11 | ACATTTGTTGATACAACCATAAAATGATAATTACACCACTAAATTGATAATTATCACACCCATAAATTGATATTGCCTCTGATCATAGTCAGACCAACATTGCTACGACCCGTATTCGCACCGACAC | -2.09 ± 0.036 | -1.78 ± 0.12
12 | ACATTTGTTGATACAACCATAAAATGATAATTACACCCATAAATTGATAATTCACACCCATAAATTGATATTGCCTCTGATCATAGTCAGACCAACATTGCTACGACCCGTATTCGCACCGACACTG | 1.41 ± 0.045 | -1.06 ± 0.18
13 | ACATTTGTTGATACAACCATAAAATGATAATTACACCCATAAATTGATACGGCTCACACCCATAAATTGATATTGCCTCTGATCATAGTCAGACCAACATTGCTACGACCCGTATTCGCACCGACAC | 0.173 ± 0.15 | -0.622 ± 0.074
14 | ACATTTGTTGATACAACCATAAAATGATAATTACACCCATAAATTGATAATTATCACACCCATAAATTGATATTGCAGAGGATCATAGTCAGACCAACATTGCTACGACCCGTATTCGCACCGACAC | -0.044 ± 0.11 | 0.0202 ± 0.033
15 | ACATTTGTTGATACAACCATAAAATGATAATTACACCCATAAATTGTAAATTATCACACCCATAAATTGATATTGCCTCTGATCATAGTCAGACCAACATTGCTACGACCCGTATTCGCACCGACAC | -0.553 ± 0.24 | -0.602 ± 0.1
